Assay results taken from patent publication US20190077860A1 (EISAI R AND D MANAGEMENT, published 2019).

T1: human EphA10 extracellular region-SEAP-His protein (human, UniProt Q5JZY3 34-565)
T1 construct: extracellular domain; also called hEphA10-SEAP-His
T1 sequence (looked up): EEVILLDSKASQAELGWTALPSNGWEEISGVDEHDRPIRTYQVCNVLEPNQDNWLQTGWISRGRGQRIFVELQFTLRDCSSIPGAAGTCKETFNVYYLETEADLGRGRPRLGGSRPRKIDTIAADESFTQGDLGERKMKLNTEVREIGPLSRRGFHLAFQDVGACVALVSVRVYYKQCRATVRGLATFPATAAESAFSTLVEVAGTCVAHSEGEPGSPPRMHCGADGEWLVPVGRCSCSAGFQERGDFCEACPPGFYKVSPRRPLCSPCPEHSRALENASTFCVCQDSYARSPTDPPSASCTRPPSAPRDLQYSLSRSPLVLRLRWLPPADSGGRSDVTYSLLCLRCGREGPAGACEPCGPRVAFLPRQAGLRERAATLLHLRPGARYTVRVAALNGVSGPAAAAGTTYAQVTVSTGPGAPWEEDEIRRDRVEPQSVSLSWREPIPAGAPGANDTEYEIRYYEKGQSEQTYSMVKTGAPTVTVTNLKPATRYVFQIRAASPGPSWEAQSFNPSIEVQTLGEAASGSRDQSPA

T2: human EphA7 extracellular region-SEAP-His protein (human, UniProt Q15375 28-555)
T2 construct: extracellular domain; also called hEphA7-SEAP-His
T2 sequence (looked up): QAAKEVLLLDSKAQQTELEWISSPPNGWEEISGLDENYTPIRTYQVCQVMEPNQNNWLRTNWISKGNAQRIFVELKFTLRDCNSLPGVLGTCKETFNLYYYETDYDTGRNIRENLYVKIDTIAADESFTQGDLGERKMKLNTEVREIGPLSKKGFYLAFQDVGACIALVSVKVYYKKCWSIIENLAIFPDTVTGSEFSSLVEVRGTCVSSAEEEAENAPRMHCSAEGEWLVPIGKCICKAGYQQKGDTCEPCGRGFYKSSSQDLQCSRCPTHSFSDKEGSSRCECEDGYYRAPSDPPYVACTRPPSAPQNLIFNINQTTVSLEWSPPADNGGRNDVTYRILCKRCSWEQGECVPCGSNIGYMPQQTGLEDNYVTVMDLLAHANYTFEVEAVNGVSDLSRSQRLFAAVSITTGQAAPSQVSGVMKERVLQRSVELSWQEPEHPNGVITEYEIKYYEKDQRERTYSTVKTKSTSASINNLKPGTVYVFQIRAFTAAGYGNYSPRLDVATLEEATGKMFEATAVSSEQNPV

T3: human EphB6 extracellular region-SEAP-His protein (human, UniProt O15197 32-594)
T3 construct: extracellular domain; also called hEphB6-SEAP-His
T3 sequence (looked up): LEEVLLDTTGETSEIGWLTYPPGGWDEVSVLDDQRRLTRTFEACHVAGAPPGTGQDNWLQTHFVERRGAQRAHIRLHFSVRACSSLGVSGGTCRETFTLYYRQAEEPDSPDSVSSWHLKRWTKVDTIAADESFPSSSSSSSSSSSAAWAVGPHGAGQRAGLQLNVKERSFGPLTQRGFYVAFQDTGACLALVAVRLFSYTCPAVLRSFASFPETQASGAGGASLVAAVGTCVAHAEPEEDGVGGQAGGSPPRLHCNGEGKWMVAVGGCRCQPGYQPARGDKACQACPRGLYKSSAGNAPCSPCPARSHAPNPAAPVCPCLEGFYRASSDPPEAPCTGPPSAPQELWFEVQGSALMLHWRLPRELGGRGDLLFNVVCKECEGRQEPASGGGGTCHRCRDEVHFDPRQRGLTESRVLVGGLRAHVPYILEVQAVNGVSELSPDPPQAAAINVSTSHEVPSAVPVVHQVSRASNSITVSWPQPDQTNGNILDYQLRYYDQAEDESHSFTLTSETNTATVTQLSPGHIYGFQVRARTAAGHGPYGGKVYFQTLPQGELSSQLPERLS

T4: human EphA1 extracellular region-SEAP-His protein (human, UniProt P21709 26-547)
T4 construct: extracellular domain; also called hEphA1-SEAP-His
T4 sequence (looked up): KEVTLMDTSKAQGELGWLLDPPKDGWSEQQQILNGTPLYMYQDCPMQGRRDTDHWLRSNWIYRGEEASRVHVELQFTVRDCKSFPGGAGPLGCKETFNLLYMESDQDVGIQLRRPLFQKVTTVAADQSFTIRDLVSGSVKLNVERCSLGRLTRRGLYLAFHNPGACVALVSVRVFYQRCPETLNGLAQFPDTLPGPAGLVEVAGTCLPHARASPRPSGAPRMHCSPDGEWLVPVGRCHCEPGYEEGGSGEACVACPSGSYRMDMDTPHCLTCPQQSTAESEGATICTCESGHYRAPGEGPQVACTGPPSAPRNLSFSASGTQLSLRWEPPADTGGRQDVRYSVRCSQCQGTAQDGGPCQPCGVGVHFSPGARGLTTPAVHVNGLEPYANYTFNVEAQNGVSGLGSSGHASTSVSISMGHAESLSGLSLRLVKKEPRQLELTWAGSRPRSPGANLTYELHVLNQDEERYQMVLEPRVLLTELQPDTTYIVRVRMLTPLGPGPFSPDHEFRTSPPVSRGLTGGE


Tests used:
Assay in all cases: ELISA
[1] = biological target: T5, human EphA5 extracellular region-SEAP-His protein (human, UniProt P54756 25-573)
T5 construct: extracellular domain; also called hEphA5-SEAP-His
T5 sequence (P54756 25-573): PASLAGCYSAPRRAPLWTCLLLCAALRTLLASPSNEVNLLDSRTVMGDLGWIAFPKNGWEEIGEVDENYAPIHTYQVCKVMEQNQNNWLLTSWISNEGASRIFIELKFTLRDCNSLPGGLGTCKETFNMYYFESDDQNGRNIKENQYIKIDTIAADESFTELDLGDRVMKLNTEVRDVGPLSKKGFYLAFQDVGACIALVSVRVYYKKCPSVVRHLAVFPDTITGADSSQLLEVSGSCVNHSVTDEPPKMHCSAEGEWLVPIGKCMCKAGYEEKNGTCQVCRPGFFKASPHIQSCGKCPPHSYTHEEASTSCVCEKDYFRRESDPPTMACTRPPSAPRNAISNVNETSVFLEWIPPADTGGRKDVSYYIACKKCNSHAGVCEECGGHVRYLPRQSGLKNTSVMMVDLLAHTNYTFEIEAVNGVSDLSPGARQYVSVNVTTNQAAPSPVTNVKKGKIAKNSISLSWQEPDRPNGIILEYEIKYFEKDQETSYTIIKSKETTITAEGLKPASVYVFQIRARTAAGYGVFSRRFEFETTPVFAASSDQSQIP
Procedure: (§1) Each well of a 96-well plate (Nunc) was coated with a rabbit anti-6-His antibody (Bethyl Laboratories). Each well was […] After washing with 0.05% Tween 20/PBS (Nacalai Tesque) three times, the SEAP-His protein of human EphA1, EphA2, EphA3, EphA4, EphA5, EphA6, EphA7, EphA8, EphA10, EphB1, EphB2, EphB3, EphB4, or EphB6 was added (final concentration: 1 nM) to each well and incubated at room temperature for 1 hour. After washing three times, the humanized antibody was added to each well and incubated at room temperature for 1 hour. After washing three times, a horseradish peroxidase-labeled donkey […] antibody (Jackson ImmunoResearch Laboratories) was added thereto and incubated at room temperature for 1 hour. After washing three times, TMB Microwell Peroxidase Substrate System (Kirkegaard & Perry Laboratories (KPL)) was added to each well. After confirmation of moderate color development, an equal amount of a reaction stopping solution (1N H₂SO₄, Wako Pure Chemical Industries) was added to each well. The absorbance at 450 nm was read using a microplate reader (Thermo Fisher Scientific).

[2] = biological target: T1, human EphA10 extracellular …
Procedure: as §1

SEAP-His = SEAP-His (UniProt P05187 23-511)
Chain of SEAP-His (P05187 23-511): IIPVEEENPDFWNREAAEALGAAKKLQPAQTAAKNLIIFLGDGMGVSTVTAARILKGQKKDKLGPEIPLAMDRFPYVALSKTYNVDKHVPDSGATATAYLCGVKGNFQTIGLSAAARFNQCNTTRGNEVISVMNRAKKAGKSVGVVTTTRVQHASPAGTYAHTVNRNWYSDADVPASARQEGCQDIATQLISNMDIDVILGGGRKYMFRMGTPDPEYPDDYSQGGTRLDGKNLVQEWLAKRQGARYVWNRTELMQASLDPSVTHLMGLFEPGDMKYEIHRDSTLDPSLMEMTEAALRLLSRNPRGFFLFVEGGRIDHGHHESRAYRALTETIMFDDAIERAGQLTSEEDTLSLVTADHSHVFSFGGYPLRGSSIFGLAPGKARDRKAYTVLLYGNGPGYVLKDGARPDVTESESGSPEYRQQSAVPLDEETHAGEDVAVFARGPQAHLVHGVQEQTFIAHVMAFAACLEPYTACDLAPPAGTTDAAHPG
Procedure: as §1

[3] = biological target: T2, human EphA7 extracellular …
Procedure: as §1

[4] = biological target: T3, human EphB6 extracellular …
Procedure: as §1

[5] = biological target: T4, human EphA1 extracellular …
Procedure: as §1

Binder | A450 as % of hEphA4-SEAP-His [1] [%] | A450 as % of hEphA4-SEAP-His [2] [%] | A450 as % of hEphA4-SEAP-His (SEAP-His) [%] | A450 as % of hEphA4-SEAP-His [3] [%] | A450 as % of hEphA4-SEAP-His [4] [%] | A450 as % of hEphA4-SEAP-His [5] [%]
humanized antibody No. 86 (antibody, human IgG1, kappa, human Ig kappa; also called L1-5/HK4) heavy: QIQLVQSGSELKKPGASVKVSCKASGYTFTDYSMHWVRQAPGQGLKWMGWINTETGEPTYADDFKGRFVFSLDTSVSTAYLQISSLKAEDTAVYYCARIPLYYYGSRYWYFDVWGQGTTVTVSSASTKGPSVFPLAPSSKSTSGGTAALGCLVKDYFPEPVTVSWNSGALTSGVHTFPAVLQSSGLYSLSSVVTVPSSSLGTQTYICNVNHKPSNTKVDKRVEPKSCDKTHTCPPCPAPPAAAPSVFLFPPKPKDTLMISRTPEVTCVVVDVSHEDPEVQFNWYVDGVEVHNAKTKPREEQFNSTFRVVSVLTVVHQDWLNGKEYKCKVSNKGLPAPIEKTISKTKGQPREPQVYTLPPSREEMTKNQVSLTCLVKGFYPSDIAVEWESNGQPENNYKTTPPMLDSDGSFFLYSKLTVDKSRWQQGNVFSCSVMHEALHNHYTQKSLSLSPG light: DIQMTQSPSSLSASVGDRVTITCRASENIYRNLAWYQQKPGKAPKLLLYAATNLADGVPSRFSGSGSGTDYTLTISSLQSEDFATYYCQHFWGTPWTFGQGTKVEIKRTVAAPSVFIFPPSDEQLKSGTASVVCLLNNFYPREAKVQWKVDNALQSGNSQESVTEQDSKDSTYSLSSTLTLSKADYEKHKVYACEVTHQGLSSPVTKSFNRGEC | 5.7 | 5.6 | 6.1 | 5.6 | 5.7 | 5.9
humanized antibody No. 87 (antibody, human IgG1, kappa, human Ig kappa; also called L1-6/HA1) heavy: QVQLVQSGSELKKPGASVKVSCKASGYTFTDYSMHWVRQAPGQGLEWMGWINTETGEPTYAQGFTGRFVFSLDTSVSTAYLQISSLKAEDTAVYYCARIPLYYYGSRYWYFDVWGQGTTVTVSSASTKGPSVFPLAPSSKSTSGGTAALGCLVKDYFPEPVTVSWNSGALTSGVHTFPAVLQSSGLYSLSSVVTVPSSSLGTQTYICNVNHKPSNTKVDKRVEPKSCDKTHTCPPCPAPPAAAPSVFLFPPKPKDTLMISRTPEVTCVVVDVSHEDPEVQFNWYVDGVEVHNAKTKPREEQFNSTFRVVSVLTVVHQDWLNGKEYKCKVSNKGLPAPIEKTISKTKGQPREPQVYTLPPSREEMTKNQVSLTCLVKGFYPSDIAVEWESNGQPENNYKTTPPMLDSDGSFFLYSKLTVDKSRWQQGNVFSCSVMHEALHNHYTQKSLSLSPG light: DIQMTQSPSSLSASVGDRVTITCRASENIYRNLAWYQQKPGKAPQLLLYAATNLADGVPSRFSGSGSGTDYTLTISSLQPEDFATYYCQHFWGTPWTFGQGTKVEIKRTVAAPSVFIFPPSDEQLKSGTASVVCLLNNFYPREAKVQWKVDNALQSGNSQESVTEQDSKDSTYSLSSTLTLSKADYEKHKVYACEVTHQGLSSPVTKSFNRGEC | 5.4 | 5.2 | 5.5 | 5.3 | 5.3 | 5.3
humanized antibody No. 88 (antibody, human IgG1, kappa, human Ig kappa; also called L1-6/HA2) heavy: QVQLVQSGSELKKPGASVKVSCKASGYTFTDYSMHWVRQAPGQGLKWMGWINTETGEPTYAQGFTGRFVFSLDTSVSTAYLQISSLKAEDTAVYYCARIPLYYYGSRYWYFDVWGQGTTVTVSSASTKGPSVFPLAPSSKSTSGGTAALGCLVKDYFPEPVTVSWNSGALTSGVHTFPAVLQSSGLYSLSSVVTVPSSSLGTQTYICNVNHKPSNTKVDKRVEPKSCDKTHTCPPCPAPPAAAPSVFLFPPKPKDTLMISRTPEVTCVVVDVSHEDPEVQFNWYVDGVEVHNAKTKPREEQFNSTFRVVSVLTVVHQDWLNGKEYKCKVSNKGLPAPIEKTISKTKGQPREPQVYTLPPSREEMTKNQVSLTCLVKGFYPSDIAVEWESNGQPENNYKTTPPMLDSDGSFFLYSKLTVDKSRWQQGNVFSCSVMHEALHNHYTQKSLSLSPG light: DIQMTQSPSSLSASVGDRVTITCRASENIYRNLAWYQQKPGKAPQLLLYAATNLADGVPSRFSGSGSGTDYTLTISSLQPEDFATYYCQHFWGTPWTFGQGTKVEIKRTVAAPSVFIFPPSDEQLKSGTASVVCLLNNFYPREAKVQWKVDNALQSGNSQESVTEQDSKDSTYSLSSTLTLSKADYEKHKVYACEVTHQGLSSPVTKSFNRGEC | 5.9 | 5.8 | 6.1 | 6 | 6.1 | 5.8
humanized antibody No. 89 (antibody, human IgG1, kappa, human Ig kappa; also called L1-6/HA4) heavy: QIQLVQSGSELKKPGASVKVSCKASGYTFTDYSMHWVRQAPGQGLKWMGWINTETGEPTYAQGFTGRFVFSLDTSVSTAYLQISSLKAEDTAVYYCARIPLYYYGSRYWYFDVWGQGTTVTVSSASTKGPSVFPLAPSSKSTSGGTAALGCLVKDYFPEPVTVSWNSGALTSGVHTFPAVLQSSGLYSLSSVVTVPSSSLGTQTYICNVNHKPSNTKVDKRVEPKSCDKTHTCPPCPAPPAAAPSVFLFPPKPKDTLMISRTPEVTCVVVDVSHEDPEVQFNWYVDGVEVHNAKTKPREEQFNSTFRVVSVLTVVHQDWLNGKEYKCKVSNKGLPAPIEKTISKTKGQPREPQVYTLPPSREEMTKNQVSLTCLVKGFYPSDIAVEWESNGQPENNYKTTPPMLDSDGSFFLYSKLTVDKSRWQQGNVFSCSVMHEALHNHYTQKSLSLSPG light: DIQMTQSPSSLSASVGDRVTITCRASENIYRNLAWYQQKPGKAPQLLLYAATNLADGVPSRFSGSGSGTDYTLTISSLQPEDFATYYCQHFWGTPWTFGQGTKVEIKRTVAAPSVFIFPPSDEQLKSGTASVVCLLNNFYPREAKVQWKVDNALQSGNSQESVTEQDSKDSTYSLSSTLTLSKADYEKHKVYACEVTHQGLSSPVTKSFNRGEC | 5.8 | 5.7 | 5.8 | 5.4 | 4.8 | 5.5
